Source: patent US20100040754A1

Target: hT1R2-hT1R3, human sweetness receptor (human) (UniProt Q8TE23)
Assay: cell-based or functional assay

Sequence of UniProt Q8TE23 (Q8TE23 20-839, chain 1 of 2): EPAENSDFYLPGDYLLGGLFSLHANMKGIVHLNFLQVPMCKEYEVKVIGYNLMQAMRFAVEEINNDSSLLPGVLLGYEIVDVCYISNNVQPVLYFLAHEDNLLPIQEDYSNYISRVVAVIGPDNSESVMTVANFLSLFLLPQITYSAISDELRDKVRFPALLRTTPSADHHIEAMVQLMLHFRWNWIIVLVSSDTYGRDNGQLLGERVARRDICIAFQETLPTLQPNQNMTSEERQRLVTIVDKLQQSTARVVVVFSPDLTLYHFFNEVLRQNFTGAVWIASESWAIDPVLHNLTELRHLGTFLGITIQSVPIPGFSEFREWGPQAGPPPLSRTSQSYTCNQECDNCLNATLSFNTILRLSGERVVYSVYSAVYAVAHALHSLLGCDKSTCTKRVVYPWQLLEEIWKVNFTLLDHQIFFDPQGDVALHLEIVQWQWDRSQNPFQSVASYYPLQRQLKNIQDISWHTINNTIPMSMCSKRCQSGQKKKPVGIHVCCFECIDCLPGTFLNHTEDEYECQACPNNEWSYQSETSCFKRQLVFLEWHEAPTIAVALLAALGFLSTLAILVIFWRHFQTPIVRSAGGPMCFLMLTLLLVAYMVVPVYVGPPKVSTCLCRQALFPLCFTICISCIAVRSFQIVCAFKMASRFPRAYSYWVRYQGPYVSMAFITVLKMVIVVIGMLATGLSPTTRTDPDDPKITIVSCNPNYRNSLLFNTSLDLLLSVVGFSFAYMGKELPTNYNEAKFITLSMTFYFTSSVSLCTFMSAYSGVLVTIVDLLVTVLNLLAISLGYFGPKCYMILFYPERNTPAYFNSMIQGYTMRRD
Sequence of UniProt Q8TE23 (Q7RTX0 21-852, chain 2 of 2, further chain): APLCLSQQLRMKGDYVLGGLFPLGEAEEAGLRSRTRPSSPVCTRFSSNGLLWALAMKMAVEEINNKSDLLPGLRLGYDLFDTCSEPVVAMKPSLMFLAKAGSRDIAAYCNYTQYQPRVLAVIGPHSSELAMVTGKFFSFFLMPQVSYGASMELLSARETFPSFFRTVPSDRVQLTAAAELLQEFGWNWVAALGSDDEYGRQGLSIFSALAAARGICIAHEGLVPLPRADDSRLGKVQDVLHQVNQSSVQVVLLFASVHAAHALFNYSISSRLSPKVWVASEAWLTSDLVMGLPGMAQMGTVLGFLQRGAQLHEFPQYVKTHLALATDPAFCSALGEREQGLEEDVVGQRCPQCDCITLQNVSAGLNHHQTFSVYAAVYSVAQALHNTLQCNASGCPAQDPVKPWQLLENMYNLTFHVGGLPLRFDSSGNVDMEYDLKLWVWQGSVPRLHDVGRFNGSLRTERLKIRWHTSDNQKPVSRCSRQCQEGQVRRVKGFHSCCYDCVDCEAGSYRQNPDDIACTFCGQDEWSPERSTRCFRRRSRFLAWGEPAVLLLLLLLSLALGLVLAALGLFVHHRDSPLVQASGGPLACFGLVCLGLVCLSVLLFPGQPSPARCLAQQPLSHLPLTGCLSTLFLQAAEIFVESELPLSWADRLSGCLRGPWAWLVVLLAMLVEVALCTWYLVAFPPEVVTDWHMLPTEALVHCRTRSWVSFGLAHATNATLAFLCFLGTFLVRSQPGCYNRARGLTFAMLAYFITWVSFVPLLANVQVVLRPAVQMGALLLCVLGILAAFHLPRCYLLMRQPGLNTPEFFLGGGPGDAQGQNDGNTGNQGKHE

response of the cells around pH 7, against the response in the acidic region (fraction of the response): 0.5
response of the cells around pH 8, against the response in the acidic region (fraction of the response): 0.1
Substance: neoculin (heterodimer of polypeptide NAS and polypeptide NBS) (from UniProt Q6F495 23-135; P19667 23-136) (ligand)
